Experimental data taken from the supplement of paper PMC9112550, “Optimization of the antimicrobial peptide Bac7 by deep mutational scanning” (BMC Biology, 2022).

System: Escherichia coli TOP10
Assay: shrunken log2 fold change of peptide-encoding DNA abundance (4.5 h post-induction vs induction); higher = less antimicrobial activity (less host growth inhibition)
Conditions: time post-induction: 4.5 h; library: site-saturation at positions 5, 18, 19, 20
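Also: peptides expressed intracellularly from a pBAD plasmid library in pooled LB shake-flask culture, induced with 0.3% L-arabinose, DNA abundance read by NGS, three biological replicates, DESeq2 with apeglm shrinkage.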

| Sequence | shrunken log2 fold change |
| --- | --- |
| RRIRFRPPRLPRPRPRPTRNPRP | 0.184 |
| RRIRDRPPRLPRPRPRPHMIPRP | -0.125 |
| RRIRFRPPRLPRPRPRPCVGPRP | -0.433 |
| RRIRKRPPRLPRPRPRPMKQPRP | -0.108 |
| RRIRARPPRLPRPRPRPFEEPRP | 0.424 |
| RRIRQRPPRLPRPRPRPNCIPRP | 0.133 |
| RRIRYRPPRLPRPRPRPSLHPRP | -0.622 |
| RRIRLRPPRLPRPRPRPMMFPRP | -0.269 |
| RRIRCRPPRLPRPRPRPHECPRP | -0.3 |
| RRIRIRPPRLPRPRPRPGWKPRP | -0.0134 |
| RRIRCRPPRLPRPRPRPCRWPRP | -0.103 |
| RRIRCRPPRLPRPRPRPWPPPRP | 1.08 |
| RRIRDRPPRLPRPRPRPNCQPRP | 0.156 |
| RRIRDRPPRLPRPRPRPLTGPRP | 0.266 |
| RRIRLRPPRLPRPRPRPILNPRP | -0.389 |
| RRIRYRPPRLPRPRPRPDTQPRP | -0.00672 |
| RRIRLRPPRLPRPRPRPQEQPRP | -0.00233 |
| RRIRFRPPRLPRPRPRPDKTPRP | -0.0318 |
| RRIRYRPPRLPRPRPRPAKKPRP | 0.0499 |
| RRIRDRPPRLPRPRPRPLRLPRP | 0.0919 |
| RRIRVRPPRLPRPRPRPCQMPRP | -0.486 |
| RRIRMRPPRLPRPRPRPLPEPRP | 1.24 |
| RRIRCRPPRLPRPRPRPEYQPRP | 0.123 |
| RRIRIRPPRLPRPRPRPYYCPRP | -0.529 |
| RRIRRRPPRLPRPRPRPKHFPRP | 0.3 |

| Sequence | shrunken log2 fold change |
| --- | --- |
| RRIRNRPPRLPRPRPRPLFRPRP | -0.266 |
| RRIRCRPPRLPRPRPRPCKIPRP | -0.543 |
| RRIRMRPPRLPRPRPRPPFLPRP | 0.305 |
| RRIRLRPPRLPRPRPRPFNKPRP | -0.324 |
| RRIRPRPPRLPRPRPRPQDTPRP | -0.229 |
| RRIRYRPPRLPRPRPRPLMQPRP | -0.283 |
| RRIRRRPPRLPRPRPRPVHIPRP | -0.0107 |
| RRIRQRPPRLPRPRPRPKFEPRP | -0.0683 |
| RRIRVRPPRLPRPRPRPEEPPRP | 0.0911 |
| RRIRNRPPRLPRPRPRPSWIPRP | -0.425 |
| RRIRVRPPRLPRPRPRPPHRPRP | 0.29 |
| RRIRSRPPRLPRPRPRPVPHPRP | 0.0775 |
| RRIRWRPPRLPRPRPRPEDCPRP | -0.00079 |
| RRIRRRPPRLPRPRPRPHPHPRP | 0.147 |
| RRIRIRPPRLPRPRPRPPRLPRP | 0.256 |
| RRIRARPPRLPRPRPRPWHCPRP | -0.16 |
| RRIRPRPPRLPRPRPRPKMCPRP | 0.0196 |
| RRIRTRPPRLPRPRPRPWDHPRP | -0.155 |
| RRIRLRPPRLPRPRPRPPEMPRP | 1.71 |
| RRIRRRPPRLPRPRPRPNRIPRP | 0.0217 |
| RRIRSRPPRLPRPRPRPSRLPRP | -0.0299 |
| RRIRFRPPRLPRPRPRPLSIPRP | -0.203 |
| RRIRQRPPRLPRPRPRPWIVPRP | -0.0927 |
| RRIRHRPPRLPRPRPRPYCLPRP | -0.524 |
| RRIRKRPPRLPRPRPRPCKDPRP | 0.0741 |

| Sequence | shrunken log2 fold change |
| --- | --- |
| RRIRWRPPRLPRPRPRPKHGPRP | 0.186 |
| RRIRCRPPRLPRPRPRPYLWPRP | -0.726 |
| RRIRQRPPRLPRPRPRPQVFPRP | 0.131 |
| RRIRPRPPRLPRPRPRPETHPRP | 0.221 |
| RRIRDRPPRLPRPRPRPHLSPRP | 0.0479 |
| RRIRLRPPRLPRPRPRPFFVPRP | -0.168 |
| RRIRPRPPRLPRPRPRPMCCPRP | -0.0731 |
| RRIRIRPPRLPRPRPRPDTNPRP | -0.73 |
| RRIRIRPPRLPRPRPRPVTEPRP | -0.109 |
| RRIRGRPPRLPRPRPRPQDYPRP | -0.0805 |
| RRIRERPPRLPRPRPRPIWNPRP | -0.0842 |
| RRIRPRPPRLPRPRPRPVSYPRP | -0.245 |
| RRIRARPPRLPRPRPRPAQGPRP | 0.373 |
| RRIRIRPPRLPRPRPRPEAFPRP | 0.0813 |
| RRIRYRPPRLPRPRPRPHTEPRP | -0.0196 |
| RRIRKRPPRLPRPRPRPKNSPRP | -0.0637 |
| RRIRRRPPRLPRPRPRPCQHPRP | -0.153 |
| RRIRIRPPRLPRPRPRPVEPPRP | -0.115 |
| RRIRFRPPRLPRPRPRPNWQPRP | 0.0965 |
| RRIRCRPPRLPRPRPRPGGTPRP | -0.0298 |
| RRIRWRPPRLPRPRPRPDTLPRP | -0.134 |
| RRIRERPPRLPRPRPRPFHTPRP | -0.0574 |
| RRIRKRPPRLPRPRPRPTFDPRP | 0.227 |
| RRIRHRPPRLPRPRPRPAASPRP | 0.144 |
| RRIRQRPPRLPRPRPRPMYEPRP | -0.01 |

| Sequence | shrunken log2 fold change |
| --- | --- |
| RRIRDRPPRLPRPRPRPYPRPRP | 0.0039 |
| RRIRQRPPRLPRPRPRPNDRPRP | -0.16 |
| RRIRMRPPRLPRPRPRPKPRPRP | 1.63 |
| RRIRGRPPRLPRPRPRPHHVPRP | -0.00478 |
| RRIRRRPPRLPRPRPRPTREPRP | 0.892 |
| RRIRGRPPRLPRPRPRPANKPRP | 0.209 |
| RRIRVRPPRLPRPRPRPADIPRP | -0.235 |
| RRIRLRPPRLPRPRPRPLNSPRP | -0.389 |
| RRIRARPPRLPRPRPRPINNPRP | -0.441 |
| RRIRNRPPRLPRPRPRPYAWPRP | -0.141 |
| RRIRPRPPRLPRPRPRPYCDPRP | -0.907 |
| RRIRPRPPRLPRPRPRPGNQPRP | -0.143 |
| RRIRMRPPRLPRPRPRPPNVPRP | 0.301 |
| RRIRLRPPRLPRPRPRPLFEPRP | 1.33 |
| RRIRGRPPRLPRPRPRPTEHPRP | 0.569 |
| RRIRRRPPRLPRPRPRPIHNPRP | -0.329 |
| RRIRRRPPRLPRPRPRPFNEPRP | -0.846 |
| RRIRIRPPRLPRPRPRPCLPPRP | -0.425 |
| RRIRTRPPRLPRPRPRPRTQPRP | 0.172 |
| RRIRLRPPRLPRPRPRPVQAPRP | -0.0131 |
| RRIRSRPPRLPRPRPRPDMQPRP | -0.00211 |
| RRIRPRPPRLPRPRPRPAYFPRP | -0.16 |
| RRIRRRPPRLPRPRPRPDLIPRP | 0.0201 |
| RRIRVRPPRLPRPRPRPEWVPRP | 0.23 |
| RRIRRRPPRLPRPRPRPQHWPRP | 0.179 |

| Sequence | shrunken log2 fold change |
| --- | --- |
| RRIRQRPPRLPRPRPRPQRMPRP | -0.0094 |
| RRIRPRPPRLPRPRPRPVRPPRP | 0.854 |
| RRIRFRPPRLPRPRPRPVYPPRP | -0.477 |
| RRIRCRPPRLPRPRPRPWCAPRP | -0.0685 |
| RRIRVRPPRLPRPRPRPHMNPRP | -0.499 |
| RRIRGRPPRLPRPRPRPRAAPRP | 1.53 |
| RRIRMRPPRLPRPRPRPDFQPRP | -0.0477 |
| RRIRCRPPRLPRPRPRPLDLPRP | -0.0926 |
| RRIRQRPPRLPRPRPRPEIYPRP | -0.145 |
| RRIRVRPPRLPRPRPRPLQTPRP | 0.158 |
| RRIRPRPPRLPRPRPRPFELPRP | -0.284 |
| RRIRKRPPRLPRPRPRPVWSPRP | -0.0616 |
| RRIRHRPPRLPRPRPRPMLHPRP | 0.195 |
| RRIRWRPPRLPRPRPRPDTVPRP | -0.0246 |
| RRIRCRPPRLPRPRPRPMMKPRP | -0.231 |
| RRIRMRPPRLPRPRPRPVNAPRP | 0.297 |
| RRIRWRPPRLPRPRPRPCWNPRP | 0.11 |
| RRIRKRPPRLPRPRPRPNYPPRP | -0.175 |
| RRIRPRPPRLPRPRPRPVYKPRP | -0.199 |
| RRIRKRPPRLPRPRPRPEFDPRP | 2.46 |
| RRIRERPPRLPRPRPRPDTCPRP | -0.0337 |
| RRIRVRPPRLPRPRPRPYNPPRP | -0.492 |
| RRIRERPPRLPRPRPRPTPGPRP | 0.337 |
| RRIRVRPPRLPRPRPRPLQWPRP | 0.209 |
| RRIRVRPPRLPRPRPRPHHVPRP | -0.261 |
